Test results published in the supplement of paper PMC12042874.
± gives the uncertainty stated by the source.

Assay: amyloid nucleation score (Sup35N fusion, yeast selection) (log enrichment); library NNK3; higher = more nucleation; inactive = no reads after selection
Summary of the method: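 Peptides of 20 random codons, each fused to Sup35N, were expressed in psi-negative yeast. Cells were induced with 100 μM copper sulfate for 24 hours and grown 7 days at 30°C on medium lacking adenine and uracil, and plasmid inserts before and after selection were Illumina-sequenced. Nucleation scores are DiMSum log enrichments of output over input reads, centred on the mode score of non-aggregating sequences, and sequences under 100 input reads were excluded.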

Substance	amyloid nucleation score
IDCCWSCV	0.16 ± 0.34
YPLDTVGFWEESKLFVGRGG	inactive
APDFATIFITRWGDIQTLLV	inactive
LHLGMRLV	inactive
DKYFVAASWFRWVLVYMGWS	inactive
LVGVSRRSREGDSTLSPSLG	inactive
LDGFSSKILGMFEEAVVYRM	inactive
TIVNL	inactive
SMGLR	inactive
VHFYWS	inactive
SYNTYSVYGWGKGPRNYDWQ	inactive
SLSFSVLLHWIFCYFWILY	inactive
LTFTAVNWAVPVGRGT	inactive
VPEVG	inactive
LSGVLLILSMYLDYWTNIF	inactive
WLFAIFGDGAVFGSYGGWGV	inactive
SAGMNMLYMYECKSSSMGFC	inactive
RHGLAWTYVKKSKMRTAAGR	inactive
ADERRVIR	inactive
GRGTYGSNPYRGLDIYRYDG	inactive
HLKCLGNKACEGRVITHVAD	inactive
PDAHTKMT	0.603 ± 0.27
VFGRWCFLETCMMHFTFSRY	0.865 ± 0.22

Substance	amyloid nucleation score
LLLVKSTI	-0.176 ± 0.56
TSLDCYLMRLFLGWEALKVW	inactive
VIIIEWV	inactive
TVCLVAITKAPRRCNSQHWD	-0.917 ± 1.9
VSFRYAYYWFCRTMMTAAKR	inactive
IISDQEFSYETCDFSYFCKG	inactive
GFVFQVYPQFVWVPPTTSRQ	1.2 ± 0.18
MSPIDGDDSG	inactive
DDYLPMISPFRCYSQFKYIS	inactive
AFKGRLLG	inactive
TADLRRQTLGWGKFYYVSWF	inactive
IIVFLRLSPELCVMCVRR	inactive
GSVYETNDTELLRVTLR	inactive
GFGFRAVMPMLYFEYYGQR	0.793 ± 0.12
CAVGISLRPFFMISLQLSYL	inactive
TGRVCFLCYTMSLIWSSPVT	0.07 ± 0.7
QQWWLLFSLC	inactive
GSFAGCMGCLCYILVCSVYR	0.717 ± 0.12
FYYYDLYYGRVFRDSPYSMS	inactive
PIVEYVFTPMF	inactive
VVSAV	inactive
IHIFTLKYKVRARKLATTIS	inactive
SYSLNNYMTKLVWIYVSWLL	inactive

Substance	amyloid nucleation score
HCQSRRWTKFLYMGWLPSSS	1.55 ± 0.1
GEVNTAFYSWPAMPVLADYG	inactive
ISRAVRILVVFDEVWMCSDG	inactive
RSLVCRFLTGTDMVCGIGVT	inactive
ESFHMFFFQLLSYCFSNCGW	inactive
TKKASSYQVDWFSCCWEYGA	0.708 ± 0.26
MYQLLMFAYVT	inactive
PITDNHFG	-0.697 ± 1.4
HCCVLSARGWLIGSMRWPHC	inactive
TYFTFSTWLRMYSGYSLVQV	inactive
YYFDDVTLKASTRDRVLARG	inactive
DMGTTCPSCSKRLAGQGKAA	inactive
AGNAFVDR	inactive
QINMYMVNSRWVTFGIGMLS	2.37 ± 0.055
QFPSSQN	inactive
VQTWWLNMCLLPRKSTYTHL	inactive
NCVYVLESD	-0.075 ± 0.32
MSMYVTSF	inactive
AVFGCFWFAMGLSFLYAKSL	inactive
TLWLRVLSFWTVCFLVHFTM	inactive
KGVRCANNVLRKQRLENNNF	inactive
NQVMKSNVVYYKATVNNMCF	2.09 ± 0.071
VSSWNSSMMIYMVLCIRMSG	inactive

Substance	amyloid nucleation score
KCVWWCTNWLNVKWVYSTRC	inactive
MVWKHYTSLNRDCVFNICCW	1.78 ± 0.063
KFYDHTLCFVDWRDFSW	inactive
ANGNNSLTATLTNAVD	inactive
GNGSMVVYKSARVNLLSGIT	inactive
INICLLLKQRHEWMCCKNCM	2.85 ± 0.074
GSSRRKKLTV	inactive
IHMPHLGIGSKKRVSVRGDA	inactive
VGTFWGFTIPSWYSVVVEVC	inactive
LRNLVTWRVQSKWFSIQSSW	inactive
VCHGRSNHA	inactive
RSVATLYGLRSCFCLVCSKL	1.41 ± 0.12
SRVNCLARLRSPARLMPMVR	inactive
LVGYRAQLHGVNYSMFVGIS	inactive
FVVFCRNPNSGLGNCTVSCD	inactive
ACYFWFNINIEHAR	1.78 ± 0.11
SLSPDPFEFLLLSLLLRSAV	inactive
GITMFGLHMYQNDCLEVAWL	0.904 ± 0.25
LSAHMMSCIKVYEFGFGCVD	inactive
TDVMVYHPFL	inactive
LTVRKSY	inactive
ANLIIVSVHFPRITTCYNNP	1.95 ± 0.068
ICDSDFRY	inactive

Substance	amyloid nucleation score
YAGFTQNDNVKLYTGNPFHM	inactive
IRSIEPYPMHTTSW	-0.428 ± 1.1
YHWSS	inactive
SNLDFMMGINSFRRVKAEPG	-0.251 ± 0.57
YRCYVVVSCWIHLNIKWLMY	inactive
MDPESVWED	inactive
MLVASGDTAENYSTSVYCV	inactive
VQWAEVAEMKGWGVANAWW	inactive
NSFVASEFKRLYRQWSRVHE	inactive
CRSWVPMGGDLHRGWSLANK	inactive
PRCISSPRSPSLNVWVLKSE	inactive
SLNMSN	inactive
FFRNDCGHVFSYVAGSES	inactive
HSCITFSLPCTFRQRFCLLS	inactive
FSTWNKRRMLYRHSGLFRQS	inactive
YLLDKYEVAFIPSHLVLHSP	inactive
VRQKALRNPQL	inactive
MYSMVGNLTRSWEGIGLGLM	inactive
HLLELELVFSILRRLMYWPM	inactive
CFTDSFINTLCVFNIDPGFP	2.46 ± 0.051
RTAWHMCLFCLNVTNLSWLM	2.15 ± 0.052
RYYLGMHFINCMRVRVP	inactive
RDYILKT	inactive

Substance	amyloid nucleation score
RSTVYWFWRSSELLALRLHR	inactive
IVMRPSIGMILYSRSPFVYS	inactive
LWPRRADVKQASRQPDYQCV	-0.727 ± 1
HRKIRFGYSL	inactive
SFNVSRWPRKWISLNCLKIS	inactive
LTTQSGLMAGRKKFWDAELG	0.902 ± 0.21
LFFYNWVICRSNRYHGL	inactive
GTEDWPNHGKKTLAINYLCP	inactive
LVGSSSFTAWPTIVSNI	inactive
VFSDTRCVCRKRSSVFKIVS	inactive
ITRTYNYLYTCINTFRQPSV	0.045 ± 0.45
VKGGRLISLNRVLFLEDPVG	inactive
MSMLYSGWAYELTLHYMRPA	inactive
GNSASLEEVVLMEEGGVLCA	inactive
TGRLVIFTEWRLSAESSRSH	inactive
LSSYTVSFPKRMHRSEYFGY	-0.73 ± 0.9
RLGRLTPKMISYRKVWKYWG	inactive
VCRGQRISACQSRSVCGCWH	inactive
TMVLIICDN	inactive
FSILCKLVLRQLKNGSFYGF	-0.329 ± 0.77
YTIVLLYERFQLAPTTMWMC	inactive
TTNDWHTFSGMVIKGWHIGK	inactive
REVELSNVYYNDVSACLHKK	-0.378 ± 1.4

Substance	amyloid nucleation score
IHWGRAGATEAAST	inactive
AQAVHAEVVQFILYFGESPL	2.47 ± 0.08
AFLGEEVNSTLLKS	inactive
TFWMPD	-0.55 ± 1.3
FGTLFSTVFRVLRFNRISAP	inactive
DCSGG	inactive
FLMVLSMDLYVKLLLGSYIN	inactive
WFRTGLAKNSISSGVGVMCH	inactive
SSQLDHVRLSGYVLTLEGPF	inactive
YQQSIVHVRRFTYRRAPVVA	-0.46 ± 1.9
CYYDEVFAFLSLMTFRIQNK	inactive
NSTKLKPYWGPG	inactive
RVQMVLLMNTSFLNVLIMCI	-0.375 ± 1
MYRITQGHLR	inactive
SIYLCLYREVSTVWGKRSN	inactive
EYELESESKCPLDFAFIKKG	inactive
VRWYCS	inactive
MYKFCSY	inactive
KCGFYRTVFCSRVCVRS	inactive
FMKSMVLYPDTVLFYFCLLH	inactive
